Source: patent publication US20230295324A1 (published 2023)

T1: human OX40 on cells (CHO-K1/hu OX40) (human, UniProt P43489 29-277)
T1 sequence (looked up): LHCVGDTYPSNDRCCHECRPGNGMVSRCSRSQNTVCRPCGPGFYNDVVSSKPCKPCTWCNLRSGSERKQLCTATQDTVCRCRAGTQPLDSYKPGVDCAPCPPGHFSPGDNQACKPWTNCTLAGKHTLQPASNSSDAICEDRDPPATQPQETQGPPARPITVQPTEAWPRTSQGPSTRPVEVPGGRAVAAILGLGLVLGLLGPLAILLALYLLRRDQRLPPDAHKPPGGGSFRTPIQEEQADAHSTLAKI

T2: human OX40 protein (Acro biosystem, #OX0-H5224) (human, UniProt P43489 29-216)
T2 construct: Bought recombinant protein
T2 sequence (looked up): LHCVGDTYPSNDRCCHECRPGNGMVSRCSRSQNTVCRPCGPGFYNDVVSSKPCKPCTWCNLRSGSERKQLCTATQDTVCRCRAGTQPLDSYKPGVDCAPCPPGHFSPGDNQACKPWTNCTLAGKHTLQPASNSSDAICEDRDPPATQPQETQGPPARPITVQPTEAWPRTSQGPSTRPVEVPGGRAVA


Tests used:
[1] = molecular target: T1, human OX40 on cells (CHO-K1/hu OX40); experiment: cell-based or functional assay
[2] = molecular target: T1, human OX40 on cells (CHO-K1/hu OX40); experiment: FACS, CHO-K1/hu OX40 cells
Procedure: This example is intended to investigate the in vitro binding activity of anti-human OX40 HCAb monoclonal antibodies to human OX40. The antibody binding assay at the cellular level was performed using a stable CHO-K1 cell strain overexpressing human OX40 (CHO-K1/hu OX40). Briefly, the CHO-K1/hu OX40 cells were digested, resuspended in an F12K complete medium and washed once with PBS. The cell density was adjusted to 1×10⁶ cells/mL with PBS. The cells were seeded in a 96-well V-bottom plate (Corning, #3894) at 100 μL/well, and centrifuged, and then the supernatant was discarded. Then, the test antibodies diluted in a 3-fold gradient at concentrations that were 2 times the final concentrations were added at 100 μL/well. The cells were incubated at 4° C. for 1 h away from light. Thereafter, the cells in each well were rinsed twice with 100 μL of pre-cooled PBS, and centrifuged at 500 g at 4° C. for 5 min, and then the supernatant was discarded. […] The plate was incubated away from light at 4° C. for 30 min. The cells in each well were rinsed twice with 100 μL of pre-cooled PBS, and centrifuged at 500 g at 4° C. for 5 min, and then the supernatant was discarded. Finally, the cells in each well were resuspended in 200 μL of pre-cooled PBS, and the fluorescence signal values were read using a BD FACS CANTOII.

[3] = molecular target: T3, cynomolgus monkey OX40 protein (Novoprotein, #CB17) (cynomolgus monkey); experiment: ELISA, coated cyno OX40 protein
T3 construct: Bought recombinant protein; also called cyno OX40
Procedure: (§1) This example is intended to investigate the in vitro binding activity of the anti-OX40 HCAb monoclonal antibodies prepared in Example 1 to human and cynomolgus monkey OX40 proteins. The antibody binding assay at the protein level was performed using a human OX40 protein (Acro biosystem, #OX0-H5224) and a cynomolgus monkey OX40 protein (Novoprotein, #CB17). Briefly, a 384-well plate (PerkinElmer, #6007509) was coated with 1 μg/mL human OX40 protein and a cynomolgus monkey OX40 protein dissolved in PBS at 20 μL/well, and incubated at 4° C. overnight. The next day, the 384-well plate was washed three times with PBS containing 0.05% Tween (MEDICAGO, #09-9410-100), and blocked with PBS containing 2% milk (Bio-Rad, #170-6404) at 37° C. for 1 h. […] The plate was added with a stop buffer (BBI life sciences, #E661006-0200) at 20 μL/well, and read for OD₄₅₀₋₆₅₀ values using a plate reader (Molecular Devices, model: SpectraMax Plus). The values were analyzed with Graphad 8.0 and plotted.

[4] = molecular target: T2, human OX40 protein (Acro biosystem, …); experiment: ELISA, coated human OX40 protein
Procedure: as §1

[5] = molecular target: T1, human OX40 on cells (CHO-K1/hu OX40); experiment: FACS, blocking of biotin-human OX40L on CHO-K1/hu OX40 cells
Procedure: Briefly, the CHO-K1/hu OX40 cells were digested and resuspended in an F-12K complete medium, and the cell density was adjusted to 1×10⁶ cells/mL. The cells were seeded in a 96-well V-bottom plate (Corning, #3894) at 100 μL/well, and centrifuged, and then the supernatant was discarded. The test antigen-binding proteins diluted in a 3-fold gradient at concentrations that were 2 times the final concentrations were added at 100 μL/well, and the mixture was well mixed, wherein the antigen-binding protein had the highest final concentration of 100 nM, and a total of 8 concentrations were obtained. […] The cells were incubated at 4° C. for 1 h away from light. Thereafter, the cells were centrifuged at 4° C. for 5 min, and then the supernatant was discarded. […] The cells in each well were rinsed twice with 100 μL of pre-cooled PBS, and centrifuged at 500 g at 4° C. for 5 min, and then the supernatant was discarded. A 1:200 fluorescent secondary antibody PE Streptavidin (BD Biosciences, #554061) was added at 100 μL/well, and the cells were incubated away from light at 4° C. for 30 min. The cells in each well were rinsed twice with 200 μL of pre-cooled PBS, and centrifuged at 500 g at 4° C. for 5 min, and then the supernatant was discarded. Finally, the cells in each well were resuspended in 200 μL of precooled PBS. Fluorescence signal values were read using BD FACS CANTOII, and IC50 was calculated. Inhibition rate %={average MFI of non-blocking control well−MFI value of OX40 antibody}/{(average MFI of non-blocking control well)−average MFI of 100% blocking control well)}×100%.

| EC50, HEK293/OX40/NF-kb luciferase reporter [1] | Maximum fluorescence signal value, HEK293/OX40/NF-kb luciferase reporter [1] | EC50 [2] | Maximum MFI [2] | EC50 [3] | Maximum OD [3] | EC50 [4] | Maximum OD [4] | Maximum inhibition rate (%) [5] | IC50 [5] | Binder |
| --- | --- | --- | --- | --- | --- | --- | --- | --- | --- | --- |
| 23.2 nM | 156000 luminescence | 10.9 nM | 1740 MFI | 0.152 nM | 1.87 OD | 0.134 nM | 1.96 OD | 16% |  | PR002061 (antibody, human IgG1, V domains shown, no light chain; also called anti-OX40 HCAb antibody) VH: EVQLLESGGGLVQPGGSLRLSCAASGFTFSSYAMSWVRQAPGKGLEWVSAISGRGGSTYYADSVRGRFTISRDNSKNTLYLQMNSLRAEDTAVYYCANGMTGTTDVDYWGQGTLVTVSS |
| 7.6 nM | 129000 luminescence | 4.39 nM | 2530 MFI | 0.132 nM | 2.51 OD | 0.0729 nM | 2.4 OD | 46% | 67.6 nM | PR002070 (antibody, human IgG1, V domains shown, no light chain; also called anti-OX40 HCAb antibody) VH: EVQLLESGGGLVQPGGSLRLSCIASGFSFSSYAMSWVRQAPGKGLEWVSAISGRGGSTFYADSVRGRFNISRDNSKNTLYLQMNSLRVEDTAVYYCANGMTGTTDVDYWGQGTLVTVSS |
| 30.3 nM | 147000 luminescence | 22.4 nM | 1570 MFI | 0.218 nM | 2.08 OD | 0.0814 nM | 2.28 OD | 20% |  | PR002064 (antibody, human IgG1, V domains shown, no light chain; also called anti-OX40 HCAb antibody) VH: EVQLVETGGGLVQPGGSLRLSCAASGFTFSSYAMSWVRQAPGKGQEWVSAISGSGGSTFYADSVRGRFTISRDNSKNTLYLQMSSLRAEDTAVYYCANGMTGTTDVDYWGQGTLVTVSS |
| 6.27 nM | 99700 luminescence | 4.43 nM | 2990 MFI | 0.129 nM | 2.24 OD | 0.051 nM | 2.24 OD | 53% | 50.9 nM | PR002069 (antibody, human IgG1, V domains shown, no light chain; also called anti-OX40 HCAb antibody) VH: EVQLLESGGGLVQPGGSLRLSCAASGFTFSSYAMSWVRQAPGKGREWVSAISGGGGNTFYADSVRGRFTISRDNSKNTLYLQMNSLRAEDTAVYYCANGVTGTTDVDYWGQGTLVTVSS |
| 22.9 nM | 139000 luminescence | 10.1 nM | 2130 MFI | 0.253 nM | 2.38 OD | 0.092 nM | 2.42 OD | 25% | 23.1 nM | PR002068 (antibody, human IgG1, V domains shown, no light chain; also called anti-OX40 HCAb antibody) VH: EVQLLESGGGLVQPGGSLRLSCAASGFSFSSYAMTWVRQAPGKGLEWVSAISGGGGSIFYADSVRGRFTISRDNSKNTLYLQMNSLRAEDTAVYYCANGMTGSTDVDYWGQGTQVTVSS |
|  |  |  |  | 0.415 nM | 3.07 OD | 0.0618 nM | 2.48 OD |  |  | PR002075 (antibody, human IgG1, V domains shown, no light chain; also called anti-OX40 HCAb antibody) VH: EVQLVETGGGLIQPGGSLRLSCAASGFTFSSYAMSWVRQAPGKGLEWVSAISGSGGNTYYADSVRGRFTISRDNSKNTLYLQMNSLRAEDTAVYYCANGITGTTDVDYWGQGTRVTVSS |
| 25.2 nM | 149000 luminescence | 37.9 nM | 1900 MFI | 0.126 nM | 1.81 OD | 0.103 nM | 1.94 OD | 13% |  | PR002062 (antibody, human IgG1, V domains shown, no light chain; also called anti-OX40 HCAb antibody) VH: EVQLLESGGGLVQPGGSLRLSCAASGFTFSSYAMSWVRQAPGKGQEWVSAISGSGGSTFYADSVRGRFTISRDNSKNTLYLQMSSLRAEDTAVYYCANGMTGTTDVDYWGQGTLVTVSS |
| 15.1 nM | 132000 luminescence | 8.95 nM | 1860 MFI | 0.0938 nM | 1.94 OD | 0.0828 nM | 2.09 OD | 12% |  | PR002060 (antibody, human IgG1, V domains shown, no light chain; also called anti-OX40 HCAb antibody) VH: EVQLLESGGGLVQPGGSLRLSCAASGFTFSDYAMSWVRQAPGKGLEWVSAISGRGGSTYYADSVRGRFTISRDNSKNTLYLQMTSLRAEDTAVYYCANGMTGTTDVDYWGQGTLVTVSS |
| 4.89 nM | 154000 luminescence | 3.12 nM | 2930 MFI | 0.0682 nM | 1.69 OD | 0.057 nM | 1.71 OD | 34% | 43.7 nM | PR002056 (antibody, human IgG1, V domains shown, no light chain; also called anti-OX40 HCAb antibody) VH: EVQLLESGGGLVQPGGSLRLSCAASGFTFSSYAMSWVRQAPGKGLEWVSAISGGGGSIFYADSVRGRFTISRDNSKNTLYLQMNSLRAEDTAVYYCANGMTGTTDVDYWGQGTLVTVSS |
| 1.83 nM | 117000 luminescence | 1.35 nM | 3630 MFI | 0.0774 nM | 1.9 OD | 0.0695 nM | 2 OD | 79% | 15.9 nM | PR002059 (antibody, human IgG1, V domains shown, no light chain; also called anti-OX40 HCAb antibody) VH: EVQLLESGGGLVQPGGSLRLSCVVSGLTFSSYAMSWVRQAPGKGREWVSAISGRGGSTFYADSVRGRFTISRDNSKNTLYLQMNSLRAEDTAVYYCANGMTGSTDVDYWGQGTLVTVSS |
| 14.3 nM | 172000 luminescence | 12.8 nM | 1670 MFI | 0.133 nM | 1.76 OD | 0.124 nM | 1.76 OD | 12% |  | PR002057 (antibody, human IgG1, V domains shown, no light chain; also called anti-OX40 HCAb antibody) VH: EVQLLESGGGLVQPGGSLRLSCAASGFIFSSYAMSWVRQAPGKGLEWVSAISGGGGSTFYADSVRGRFTISRDNSKNTLYLQMNSLRAEDTAVYYCADGMTGTTDVDYWGQGTLVTVSS |
